According to patent US20210263001A1, “IMMOBILIZED ENZYMES AND MICROSOMES ON MAGNETIC SCAFFOLDS” (ZYMtronix Catalytic Systems, Inc., priority 2018, published 2021):

Target: T1, UGT1A6 (Homo sapiens, UniProt P19224)
T1 construct: purchased Corning 456416
T1 sequence (P19224 27-532): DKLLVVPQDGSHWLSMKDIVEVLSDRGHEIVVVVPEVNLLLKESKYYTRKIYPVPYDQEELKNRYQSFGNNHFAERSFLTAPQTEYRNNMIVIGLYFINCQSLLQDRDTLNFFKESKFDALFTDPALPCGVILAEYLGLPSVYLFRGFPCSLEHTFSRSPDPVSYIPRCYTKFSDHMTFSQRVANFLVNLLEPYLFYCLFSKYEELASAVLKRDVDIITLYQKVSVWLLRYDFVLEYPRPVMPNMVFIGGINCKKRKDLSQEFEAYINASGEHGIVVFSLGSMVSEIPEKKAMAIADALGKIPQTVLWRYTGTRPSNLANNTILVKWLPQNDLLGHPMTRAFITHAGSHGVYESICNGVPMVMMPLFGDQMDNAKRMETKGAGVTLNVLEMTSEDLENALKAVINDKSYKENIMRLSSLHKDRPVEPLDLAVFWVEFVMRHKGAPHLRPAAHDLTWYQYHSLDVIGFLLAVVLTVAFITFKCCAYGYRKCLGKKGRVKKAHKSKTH
Assay: Activity of UGT1A6 immobilized on magnetite powder, BioVision fluorometric UGT activity assay (Example 10)
Type: biochemical
Settings: 2 hours, 37° C., 500 μl reaction
Experimental: The UGT1A6 stock (5 mg/mL) was rapidly thawed in a […] and diluted in cold 50 mM Tris pH 7.0 to a final concentration of 25 μg/ml. 500 μl of UGT1A6 solution was added to 5 mg of magnetite powder and incubated for 1 hour at 4° C. with shaking. The immobilization yield was quantified by the Bradford method (Bradford reagent: Quick Start™ Bradford 1× Dye Reagent #5000205 from BioRad) by comparing it to UGT1A6 enzyme standards.
A fluorometric assay (BioVision UGT Activity Assay/Ligand Screening Kit, Cat #K692) was used to measure the activity of the free and immobilized UGT1A6. The assay utilizes a highly fluorescent UGT substrate and measures UGT activity by tracking the drop in fluorescence emission as the substrate is converted into a non-fluorescent glucuronide. UGT specific activity is calculated by comparing the fluorescence loss versus a control reaction performed in the absence of the required cofactor UDPGA. Duplicate reactions were performed in 0.5 dram glass vials (VWR® Vials, Borosilicate Glass, with Phenolic Screw Cap) with 500 μl reaction volumes at 37° C. with shaking for 2 hours. UGT1A6 reactions contained BioVision UGT Assay buffer with Alamethicin, BioVision UGT subtrate and the UDPGA cofactor. […] The product was detected by fluorescence at Ex/Em=415/502 nm and quantitated by comparing the drop in fluorescence to a standard curve of UGT substrate fluorescence.

BioVision UGT Activity Assay substrate consumed (average): 0.58 ± 0.39 nmol
B1: free UGT: Non-immobilized Corning Supersomes Human UGT1A6 enzyme (protein, UniProt P19224 27-532, looked up)
UDP-glucuronosyltransferase …: DKLLVVPQDGSHWLSMKDIVEVLSDRGHEIVVVVPEVNLLLKESKYYTRKIYPVPYDQEELKNRYQSFGNNHFAERSFLTAPQTEYRNNMIVIGLYFINCQSLLQDRDTLNFFKESKFDALFTDPALPCGVILAEYLGLPSVYLFRGFPCSLEHTFSRSPDPVSYIPRCYTKFSDHMTFSQRVANFLVNLLEPYLFYCLFSKYEELASAVLKRDVDIITLYQKVSVWLLRYDFVLEYPRPVMPNMVFIGGINCKKRKDLSQEFEAYINASGEHGIVVFSLGSMVSEIPEKKAMAIADALGKIPQTVLWRYTGTRPSNLANNTILVKWLPQNDLLGHPMTRAFITHAGSHGVYESICNGVPMVMMPLFGDQMDNAKRMETKGAGVTLNVLEMTSEDLENALKAVINDKSYKENIMRLSSLHKDRPVEPLDLAVFWVEFVMRHKGAPHLRPAAHDLTWYQYHSLDVIGFLLAVVLTVAFITFKCCAYGYRKCLGKKGRVKKAHKSKTH
modifications: Supersomes microsomal preparation
notes: Non-immobilized Corning Supersomes Human UGT1A6 enzyme
